Results published in patent US20230107004, “[…] ELECTROCHEMICAL BIOSENSOR” (THE GOVERNING COUNCIL OF THE UNIVERSITY OF TORONTO, published 2023).

Molecular target: SARS-CoV-2 spike (S/S1) protein (SARS-CoV-2, UniProt P0DTC2 P0DTC2:14-685)

B1: CoV2-RBD-4C aptamer-P2 hybridized to P1 (iMP) (mixed)
DNA 1: ATCCAGAGTGACGCAGCATTTCATCGGGTCCAAAAGGGGCTGCTCGGGATTGCGGATATGGACACGTTTTTCTTATTAGATACAATAGCTGGTA
DNA 2: TACCAGCTATTGTATCTAATAAGA
modifications: P1 strand 5'-thiol-MC6 on gold electrode, 3'-NH2 conjugated to ferrocene
B1: binds.
